According to publication doi:10.1101/771139 (bioRxiv, 2020):

Target: the molecule itself
Assay: […]

B1: Bacillus subtilis SepF (natural protein)
chain: MSMKNKLKNFFSMEDEEYEYEYIETERESHEEHEQKEKPAYNGNKPAGKQNVVSLQSVQKSSKVVLSEPRVYAEAQEIADHLKNRRAVVVNLQRIQHDQAKRIVDFLSGTVYAIGGDIQRIGSDIFLCTPDNVDVSGTISELISEDEHQRW
binding result: binds
